Results taken from US11180770B2, “HPPD variants and methods of use” (BASF Agricultural Solutions Seed US LLC, priority 2017, dated 2021).

Tested on: HPPD polypeptides
Experiment: coupled HPPD activity assay: turnover and residual turnover in crude extracts
Format: biochemical, Pseudomonas fluorescens
Conditions: for Residual turnover [%]: 100 μM Cmpd. 1, signal change with inhibitor divided by signal change without inhibitor; for Turnover: absence of Cmpd. 1, kinetic changes in absorbance (OD) at 320 nm, 30 min; for Turnover / Residual turnover: high substrate concentration; for Residual turnover: presence of 100 μM Cmpd. 1, changes in absorbance (OD) at 320 nm

B1: 28 (protein)
chain: MADLYENPMGLMGFEFIEFASPTPGTLEPIFEIMGFTKVATHRSKNVHLYRQGEINLILNNEPNSIASYFAAEHGPSVCGMAFRVKDSQKAYNRALELGAQPIHIDTGPMELNLPAIKGIGGAPLYLIDRFGEGSSIYDIDFVYLEGVERNPVGAGLKVIDHLTHNVYRGRMVYWANFYEKLFNFREARYFDIKGEYTGLTSKAMSAPDGMIRIPLNEESSKGAGQIEEFLMQFNGEGIQHVAFLTDDLVKTWDALKKIGMRFMTAPGDNYYEMLEGRLPDHGEPVDQLQARGILLDGSSVEGDKRLLLQIFSETLMGPVFFEFIQRKGDDGFGPHSFKVLFESIERDQVRRGVLTAD
modifications: mutant HPPD polypeptide
For B1, the “Residual turnover [%]” value was 43%, the Turnover was 0.204 and the Residual turnover was 0.088.

B2: 39 (protein)
chain: MADLYENPMGLMGFEFIEFASPTPGTLEPIFEIMGFTKVATHRSKNVHLYRQGEINLILNNEPNSIASYFAAEHGPSVCGMAFRVKDSQKAYNRALELGAQPIHIDTGPMELNLPAIKGIGGAPLYLIDRFGEGSSIYDIDFVYLEGVERNPVGAGLKVIDHLTHNVYRGRMVYWANFYEKLFNFREARYFDIKGEYTGLTSKAMSAPDGMIRIPLNEESSKGAGQIEEFLMQFNGEGIQHVAFLTDDLVKTWDALKKIGMRFMTAPGDEYYEMLEGRLPDHGEPVDQLQARGILLDGSSVEGDKRLLLQIFSETLMGPVFFEFIQRKGDDGFGPHSFKVLFESVERDQVRRGVLTAD
modifications: mutant HPPD polypeptide
In the case of B2, the “Residual turnover [%]” value is reported as 40%, the Turnover is reported as 0.244 and the Residual turnover is reported as 0.097.

B3: 30 (protein)
chain: MADLYENPMGLMGFEFIEFASPTPGTLEPIFEIMGFTKVATHRSKNVHLYRQGEINLILNNEPNSIASYFAAEHGPSVCGMAFRVKDSQKAYNRALELGAQPIHIDTGPMELNLPAIKGIGGAPLYLIDRFGEGSSIYDIDFVYLEGVERNPVGAGLKVIDHLTHNVYRGRMVYWANFYEKLFNFREARYFDIKGEYTGLTSKAMSAPDGMIRIPLNEESSKGAGQIEEFLMQFNGEGIQHVAFLTDDLVKTWDALKKIGMRFMTAPADTYYEMLEGRLPDHGEPVDQLQARGILLDGSSVEGDKRLLLQIFSETLMGPVFFEFIQRKGDDGFGPHSFKVLFESVERDQVRRGVLTAD
modifications: mutant HPPD polypeptide
With B3 the “Residual turnover [%]” value was 48%, the Turnover was 0.311 and the Residual turnover was 0.149.

B4: 29 (protein)
chain: MADLYENPMGLMGFEFIEFASPTPGTLEPIFEIMGFTKVATHRSKNVHLYRQGEINLILNNEPNSIASYFAAEHGPSVCGMAFRVKDSQKAYNRALELGAQPIHIDTGPMELNLPAIKGIGGAPLYLIDRFGEGSSIYDIDFVYLEGVERNPVGAGLKVIDHLTHNVYRGRMVYWANFYEKLFNFREARYFDIKGEYTGLTSKAMSAPDGMIRIPLNEESSKGAGQIEEFLMQFNGEGIQHVAFLTDDLVKTWDALKKIGMRFMTAPPDNYYEMLEGRLPDHGEPVDQLQARGILLDGSSVEGDKRLLLQIFSETLMGPVFFEFIQRKGDDGFGPHSFKVLFESIERDQVRRGVLTAD
modifications: mutant HPPD polypeptide
For B4, the “Residual turnover [%]” value was 29%, the Turnover was 0.289 and the Residual turnover was 0.084.

B5: 35 (protein)
chain: MADLYENPMGLMGFEFIEFASPTPGTLEPIFEIMGFTKVATHRSKNVHLYRQGEINLILNNEPNSIASYFAAEHGPSVCGMAFRVKDSQKAYNRALELGAQPIHIDTGPMELNLPAIKGIGGAPLYLIDRFGEGSSIYDIDFVYLEGVERNPVGAGLKVIDHLTHNVYRGRMVYWANFYEKLFNFREARYFDIKGEYTGLTSKAMSAPDGMIRIPLNEESSKGAGQIEEFLMQFNGEGIQHVAFLTDDLVKTWDALKKIGMRFMTAPPDNYYEMLEGRLPDHGEPVDQLQARGILLDGSSVEGDKRLLLQIFSETLMGPVFFEFIQRKGDDGFGPHSFKVLFESVERDQVRRGVLTAD
modifications: mutant HPPD polypeptide
For B5, the Turnover was 0.036 and the Residual turnover was 0.023.

B6: 37 (protein)
chain: MADLYENPMGLMGFEFIEFASPTPGTLEPIFEIMGFTKVATHRSKNVHLYRQGEINLILNNEPNSIASYFAAEHGPSVCGMAFRVKDSQKAYNRALELGAQPIHIDTGPMELNLPAIKGIGGAPLYLIDRFGEGSSIYDIDFVYLEGVERNPVGAGLKVIDHLTHNVYRGRMVYWANFYEKLFNFREARYFDIKGEYTGLTSKAMSAPDGMIRIPLNEESSKGAGQIEEFLMQFNGEGIQHVAFLTDDLVKTWDALKKIGMRFMTAPSDNYYEMLEGRLPDHGEPVDQLQARGILLDGSSVEGDKRLLLQIFSETLMGPVFFEFIQRKGDDGFGPHSFKVLFESVERDQVRRGVLTAD
modifications: mutant HPPD polypeptide
With B6 the “Residual turnover [%]” value was 50%, the Turnover was 0.096 and the Residual turnover was 0.048.

B7: 34 (protein)
chain: MADLYENPMGLMGFEFIEFASPTPGTLEPIFEIMGFTKVATHRSKNVHLYRQGEINLILNNEPNSIASYFAAEHGPSVCGMAFRVKDSQKAYNRALELGAQPIHIDTGPMELNLPAIKGIGGAPLYLIDRFGEGSSIYDIDFVYLEGVERNPVGAGLKVIDHLTHNVYRGRMVYWANFYEKLFNFREARYFDIKGEYTGLTSKAMSAPDGMIRIPLNEESSKGAGQIEEFLMQFNGEGIQHVAFLTDDLVKTWDALKKIGMRFMTAPGDNYYEMLEGRLPDHGEPVDQLQARGILLDGSSVEGDKRLLLQIFSETLMGPVFFEFIQRKGDDGFGPHSFKVLFESVERDQVRRGVLTAD
modifications: mutant HPPD polypeptide
For B7, the “Residual turnover [%]” value was 47%, the Turnover was 0.243 and the Residual turnover was 0.113.

B8: 36 (protein)
chain: MADLYENPMGLMGFEFIEFASPTPGTLEPIFEIMGFTKVATHRSKNVHLYRQGEINLILNNEPNSIASYFAAEHGPSVCGMAFRVKDSQKAYNRALELGAQPIHIDTGPMELNLPAIKGIGGAPLYLIDRFGEGSSIYDIDFVYLEGVERNPVGAGLKVIDHLTHNVYRGRMVYWANFYEKLFNFREARYFDIKGEYTGLTSKAMSAPDGMIRIPLNEESSKGAGQIEEFLMQFNGEGIQHVAFLTDDLVKTWDALKKIGMRFMTAPRDNYYEMLEGRLPDHGEPVDQLQARGILLDGSSVEGDKRLLLQIFSETLMGPVFFEFIQRKGDDGFGPHSFKVLFESVERDQVRRGVLTAD
modifications: mutant HPPD polypeptide
With B8 the “Residual turnover [%]” value was 61%, the Turnover was 0.108 and the Residual turnover was 0.066.

B9: 32 (protein)
chain: MADLYENPMGLMGFEFIEFASPTPGTLEPIFEIMGFTKVATHRSKNVHLYRQGEINLILNNEPNSIASYFAAEHGPSVCGMAFRVKDSQKAYNRALELGAQPIHIDTGPMELNLPAIKGIGGAPLYLIDRFGEGSSIYDIDFVYLEGVERNPVGAGLKVIDHLTHNVYRGRMVYWANFYEKLFNFREARYFDIKGEYTGLTSKAMSAPDGMIRIPLNEESSKGAGQIEEFLMQFNGEGIQHVAFLTDDLVKTWDALKKIGMRFMTAPPDTYYEMLEGRLPDHGEPVDQLQARGILLDGSSVEGDKRLLLQIFSETLMGPVFFEFIQRKGDDGFGPHSFKVLFESVERDQVRRGVLTAD
modifications: mutant HPPD polypeptide
For B9, the “Residual turnover [%]” value was 39%, the Turnover was 0.326 and the Residual turnover was 0.128.

B10: 40 (protein)
chain: MADLYENPMGLMGFEFIEFASPTPGTLEPIFEIMGFTKVATHRSKNVHLYRQGEINLILNNEPNSIASYFAAEHGPSVCGMAFRVKDSQKAYNRALELGAQPIHIDTGPMELNLPAIKGIGGAPLYLIDRFGEGSSIYDIDFVYLEGVERNPVGAGLKVIDHLTHNVYRGRMVYWANFYEKLFNFREARYFDIKGEYTGLTSKAMSAPDGMIRIPLNEESSKGAGQIEEFLMQFNGEGIQHVAFLTDDLVKTWDALKKIGMRFMTAPGDEYYEMLEGRLPDHGEPVDQLQARGILLDGSSVEGDKRLLLQIFSETLMGPVFFEFIQRKGDDGFGPDSFKVLFESVERDQVRRGVLTAD
modifications: mutant HPPD polypeptide
With B10 the “Residual turnover [%]” value was 54%, the Turnover was 0.134 and the Residual turnover was 0.073.

B11: 31 (protein)
chain: MADLYENPMGLMGFEFIEFASPTPGTLEPIFEIMGFTKVATHRSKNVHLYRQGEINLILNNEPNSIASYFAAEHGPSVCGMAFRVKDSQKAYNRALELGAQPIHIDTGPMELNLPAIKGIGGAPLYLIDRFGEGSSIYDIDFVYLEGVERNPVGAGLKVIDHLTHNVYRGRMVYWANFYEKLFNFREARYFDIKGEYTGLTSKAMSAPDGMIRIPLNEESSKGAGQIEEFLMQFNGEGIQHVAFLTDDLVKTWDALKKIGMRFMTAPGDTYYEMLEGRLPDHGEPVDQLQARGILLDGSSVEGDKRLLLQIFSETLMGPVFFEFIQRKGDDGFGPHSFKVLFESVERDQVRRGVLTAD
modifications: mutant HPPD polypeptide
With B11 the “Residual turnover [%]” value was 37%, the Turnover was 0.268 and the Residual turnover was 0.098.

B12: 33 (protein)
chain: MADLYENPMGLMGFEFIEFASPTPGTLEPIFEIMGFTKVATHRSKNVHLYRQGEINLILNNEPNSIASYFAAEHGPSVCGMAFRVKDSQKAYNRALELGAQPIHIDTGPMELNLPAIKGIGGAPLYLIDRFGEGSSIYDIDFVYLEGVERNPVGAGLKVIDHLTHNVYRGRMVYWANFYEKLFNFREARYFDIKGEYTGLTSKAMSAPDGMIRIPLNEESSKGAGQIEEFLMQFNGEGIQHVAFLTDDLVKTWDALKKIGMRFMTAPADNYYEMLEGRLPDHGEPVDQLQARGILLDGSSVEGDKRLLLQIFSETLMGPVFFEFIQRKGDDGFGPHSFKVLFESVERDQVRRGVLTAD
modifications: mutant HPPD polypeptide
In the case of B12, the “Residual turnover [%]” value is reported as 46%, the Turnover is reported as 0.189 and the Residual turnover is reported as 0.087.

B13: 38 (protein)
chain: MADLYENPMGLMGFEFIEFASPTPGTLEPIFEIMGFTKVATHRSKNVHLYRQGEINLILNNEPNSIASYFAAEHGPSVCGMAFRVKDSQKAYNRALELGAQPIHIDTGPMELNLPAIKGIGGAPLYLIDRFGEGSSIYDIDFVYLEGVERNPVGAGLKVIDHLTHNVYRGRMVYWANFYEKLFNFREARYFDIKGEYTGLTSKAMSAPDGMIRIPLNEESSKGAGQIEEFLMQFNGEGIQHVAFLTDDLVKTWDALKKIGMRFMTAPADEYYEMLEGRLPDHGEPVDQLQARGILLDGSSVEGDKRLLLQIFSETLMGPVFFEFIQRKGDDGFGPHSFKVLFESVERDQVRRGVLTAD
modifications: mutant HPPD polypeptide
B13 was tested, and the “Residual turnover [%]” value was 45%, the Turnover was 0.286 and the Residual turnover was 0.129.
